Laboratory results from publication PMC6639331.

Assays:
[1] = biological target: CCR4a, full length (human) (human) (UniProt Q9ULM6); assay: co-purification (metal affinity, SEC, anion exchange); CCR4a and CAF1 co-expressed in E. coli; nickel IMAC, tags cleaved by TEV, Superdex 200 in 10 mM HEPES/NaOH pH 7.5, 300 mM NaCl, 2 mM DTT, then Source 15Q
[2] = biological target: NOT1:NOT2:NOT3:CAF40 subcomplex (full-length subunits) (human) (UniProt A5YKK6); assay: SEC-MALS; reconstituted CCR4-NOT FULL, 40 ul at 0.9 mg/ml, Superose 6 5/150 in 10 mM HEPES/NaOH pH 7.5, 200 mM NaCl; SDS-PAGE with Coomassie staining of the complex
Sequence of NOT1:NOT2:NOT3:CAF40 subcomplex (full-length subunits) (human) (A5YKK6 whole entry, chain 1 of 4): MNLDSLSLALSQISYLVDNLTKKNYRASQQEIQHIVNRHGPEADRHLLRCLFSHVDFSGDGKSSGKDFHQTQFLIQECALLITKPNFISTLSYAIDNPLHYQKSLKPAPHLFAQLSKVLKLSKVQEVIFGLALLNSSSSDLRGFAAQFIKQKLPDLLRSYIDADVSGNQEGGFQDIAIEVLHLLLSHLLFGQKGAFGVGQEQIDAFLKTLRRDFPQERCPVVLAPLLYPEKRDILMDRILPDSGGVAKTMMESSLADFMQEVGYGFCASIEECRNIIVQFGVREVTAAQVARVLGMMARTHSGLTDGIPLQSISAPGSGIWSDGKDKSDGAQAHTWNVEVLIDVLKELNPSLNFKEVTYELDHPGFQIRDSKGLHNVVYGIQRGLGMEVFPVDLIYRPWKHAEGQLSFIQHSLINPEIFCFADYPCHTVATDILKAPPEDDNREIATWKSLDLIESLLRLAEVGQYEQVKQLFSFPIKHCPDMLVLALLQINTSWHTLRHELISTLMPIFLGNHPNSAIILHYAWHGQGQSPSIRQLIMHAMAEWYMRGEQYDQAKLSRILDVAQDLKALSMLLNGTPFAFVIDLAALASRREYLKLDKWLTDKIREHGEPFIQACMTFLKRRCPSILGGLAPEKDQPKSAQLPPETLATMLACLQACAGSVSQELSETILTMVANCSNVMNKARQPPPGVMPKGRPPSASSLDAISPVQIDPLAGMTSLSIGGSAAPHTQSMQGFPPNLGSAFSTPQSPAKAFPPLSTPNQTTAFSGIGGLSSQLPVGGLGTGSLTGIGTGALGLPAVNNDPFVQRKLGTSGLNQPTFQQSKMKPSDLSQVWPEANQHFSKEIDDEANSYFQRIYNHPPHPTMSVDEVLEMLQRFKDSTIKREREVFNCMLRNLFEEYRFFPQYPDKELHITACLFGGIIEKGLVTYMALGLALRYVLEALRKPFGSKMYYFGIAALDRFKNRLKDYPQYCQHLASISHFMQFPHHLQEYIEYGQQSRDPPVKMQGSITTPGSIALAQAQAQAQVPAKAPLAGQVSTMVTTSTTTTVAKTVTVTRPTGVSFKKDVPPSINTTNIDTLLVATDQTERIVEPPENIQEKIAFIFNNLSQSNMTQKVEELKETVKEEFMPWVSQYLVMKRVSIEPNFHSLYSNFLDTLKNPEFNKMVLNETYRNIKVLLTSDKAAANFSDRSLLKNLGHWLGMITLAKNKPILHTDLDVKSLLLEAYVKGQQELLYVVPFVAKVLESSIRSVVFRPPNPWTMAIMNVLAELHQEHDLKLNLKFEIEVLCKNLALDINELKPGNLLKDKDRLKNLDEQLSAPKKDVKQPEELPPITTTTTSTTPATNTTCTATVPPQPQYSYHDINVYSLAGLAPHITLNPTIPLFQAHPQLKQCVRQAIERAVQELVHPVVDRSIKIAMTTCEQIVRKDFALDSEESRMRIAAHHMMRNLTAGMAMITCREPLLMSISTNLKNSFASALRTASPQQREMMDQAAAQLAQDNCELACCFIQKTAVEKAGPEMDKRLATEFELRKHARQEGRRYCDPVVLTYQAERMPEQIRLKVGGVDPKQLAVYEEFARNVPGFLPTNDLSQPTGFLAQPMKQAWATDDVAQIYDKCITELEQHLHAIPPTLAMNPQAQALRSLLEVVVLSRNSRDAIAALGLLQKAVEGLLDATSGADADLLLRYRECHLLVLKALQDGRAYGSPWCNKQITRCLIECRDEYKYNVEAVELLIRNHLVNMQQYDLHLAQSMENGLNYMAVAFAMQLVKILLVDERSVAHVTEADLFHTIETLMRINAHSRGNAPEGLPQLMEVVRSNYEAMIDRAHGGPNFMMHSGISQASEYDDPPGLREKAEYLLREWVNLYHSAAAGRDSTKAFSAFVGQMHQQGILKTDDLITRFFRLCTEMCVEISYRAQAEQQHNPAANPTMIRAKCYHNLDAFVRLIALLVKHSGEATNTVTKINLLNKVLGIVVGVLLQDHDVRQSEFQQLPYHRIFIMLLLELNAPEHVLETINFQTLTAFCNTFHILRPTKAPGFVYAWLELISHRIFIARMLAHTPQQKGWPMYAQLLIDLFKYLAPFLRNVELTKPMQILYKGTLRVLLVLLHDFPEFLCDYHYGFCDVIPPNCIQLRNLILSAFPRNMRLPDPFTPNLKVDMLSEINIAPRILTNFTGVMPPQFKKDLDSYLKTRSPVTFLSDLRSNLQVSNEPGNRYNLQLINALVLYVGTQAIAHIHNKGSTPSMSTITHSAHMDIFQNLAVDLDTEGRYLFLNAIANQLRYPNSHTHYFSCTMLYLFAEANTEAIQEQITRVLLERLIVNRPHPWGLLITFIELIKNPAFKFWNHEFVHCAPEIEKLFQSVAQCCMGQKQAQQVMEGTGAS
Sequence of NOT1:NOT2:NOT3:CAF40 subcomplex (full-length subunits) (human) (Q9NZN8 whole entry, chain 2 of 4, further chain): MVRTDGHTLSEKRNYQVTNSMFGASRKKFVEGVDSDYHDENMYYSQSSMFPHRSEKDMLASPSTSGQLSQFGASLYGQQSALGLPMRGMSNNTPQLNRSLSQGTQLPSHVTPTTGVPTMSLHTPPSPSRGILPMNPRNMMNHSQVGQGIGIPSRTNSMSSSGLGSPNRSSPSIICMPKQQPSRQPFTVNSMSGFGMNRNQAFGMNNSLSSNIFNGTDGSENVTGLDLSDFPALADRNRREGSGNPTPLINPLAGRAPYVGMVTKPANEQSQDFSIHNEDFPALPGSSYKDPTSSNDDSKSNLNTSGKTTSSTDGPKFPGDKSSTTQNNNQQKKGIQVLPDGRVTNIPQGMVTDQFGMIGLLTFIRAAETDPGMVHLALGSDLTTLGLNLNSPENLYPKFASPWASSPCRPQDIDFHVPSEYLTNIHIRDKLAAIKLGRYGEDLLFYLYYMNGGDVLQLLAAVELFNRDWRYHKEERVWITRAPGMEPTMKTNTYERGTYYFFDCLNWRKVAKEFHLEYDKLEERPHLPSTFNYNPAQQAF
Sequence of NOT1:NOT2:NOT3:CAF40 subcomplex (full-length subunits) (human) (O75175 whole entry, chain 3 of 4, further chain): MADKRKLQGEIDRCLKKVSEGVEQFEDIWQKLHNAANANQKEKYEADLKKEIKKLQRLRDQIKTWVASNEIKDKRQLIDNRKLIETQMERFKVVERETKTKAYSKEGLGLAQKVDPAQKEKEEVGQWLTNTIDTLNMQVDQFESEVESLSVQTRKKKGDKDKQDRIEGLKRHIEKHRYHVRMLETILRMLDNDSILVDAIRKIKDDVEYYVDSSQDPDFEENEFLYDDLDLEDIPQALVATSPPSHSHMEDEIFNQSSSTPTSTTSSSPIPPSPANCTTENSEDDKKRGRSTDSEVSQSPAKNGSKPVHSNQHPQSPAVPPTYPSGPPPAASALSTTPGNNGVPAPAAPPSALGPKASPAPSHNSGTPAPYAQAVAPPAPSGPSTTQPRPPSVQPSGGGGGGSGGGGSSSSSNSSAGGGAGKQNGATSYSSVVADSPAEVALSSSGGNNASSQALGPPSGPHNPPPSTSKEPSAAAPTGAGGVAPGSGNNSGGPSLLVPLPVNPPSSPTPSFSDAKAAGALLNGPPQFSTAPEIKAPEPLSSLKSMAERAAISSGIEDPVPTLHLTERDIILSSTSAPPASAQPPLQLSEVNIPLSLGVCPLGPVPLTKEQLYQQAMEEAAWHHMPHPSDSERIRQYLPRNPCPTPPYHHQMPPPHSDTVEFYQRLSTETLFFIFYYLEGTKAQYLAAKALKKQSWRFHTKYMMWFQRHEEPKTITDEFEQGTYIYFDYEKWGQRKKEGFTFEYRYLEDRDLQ
Sequence of NOT1:NOT2:NOT3:CAF40 subcomplex (full-length subunits) (human) (Q92600 whole entry, chain 4 of 4, further chain): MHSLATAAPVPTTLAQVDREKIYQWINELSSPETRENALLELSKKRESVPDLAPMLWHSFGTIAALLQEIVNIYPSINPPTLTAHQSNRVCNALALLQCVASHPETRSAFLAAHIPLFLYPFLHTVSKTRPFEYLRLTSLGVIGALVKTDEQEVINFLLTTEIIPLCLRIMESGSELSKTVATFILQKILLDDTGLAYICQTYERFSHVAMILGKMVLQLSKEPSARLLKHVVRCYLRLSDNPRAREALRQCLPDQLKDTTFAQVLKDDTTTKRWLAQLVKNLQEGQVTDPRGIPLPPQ

Sequence of CCR4a, full length (human) (human) (Q9ULM6 whole entry): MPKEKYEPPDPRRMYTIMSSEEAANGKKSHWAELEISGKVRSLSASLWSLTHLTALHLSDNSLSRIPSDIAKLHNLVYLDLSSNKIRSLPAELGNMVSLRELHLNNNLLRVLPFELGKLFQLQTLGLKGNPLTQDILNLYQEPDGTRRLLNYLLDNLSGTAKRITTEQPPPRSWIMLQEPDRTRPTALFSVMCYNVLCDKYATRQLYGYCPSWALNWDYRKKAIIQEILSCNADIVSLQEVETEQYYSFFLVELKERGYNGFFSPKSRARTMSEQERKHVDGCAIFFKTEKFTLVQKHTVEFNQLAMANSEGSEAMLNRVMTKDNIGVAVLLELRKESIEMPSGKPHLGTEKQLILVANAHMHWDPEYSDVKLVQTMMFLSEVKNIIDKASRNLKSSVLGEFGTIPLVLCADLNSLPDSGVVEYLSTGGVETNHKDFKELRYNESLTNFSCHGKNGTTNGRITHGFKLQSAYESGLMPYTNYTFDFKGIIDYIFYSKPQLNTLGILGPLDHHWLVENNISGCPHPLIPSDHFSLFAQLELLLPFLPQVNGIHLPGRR
Sequence of CAF1, full length (human) (Q9UIV1 whole entry): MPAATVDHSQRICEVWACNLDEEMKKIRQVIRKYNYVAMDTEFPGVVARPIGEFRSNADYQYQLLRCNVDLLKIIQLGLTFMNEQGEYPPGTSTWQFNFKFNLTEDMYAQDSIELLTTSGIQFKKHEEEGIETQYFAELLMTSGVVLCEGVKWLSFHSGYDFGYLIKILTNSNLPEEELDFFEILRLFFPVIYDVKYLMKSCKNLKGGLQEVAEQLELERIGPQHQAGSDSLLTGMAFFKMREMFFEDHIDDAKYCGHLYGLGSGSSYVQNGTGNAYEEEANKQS

stoichiometry N [1] | stoichiometry N [2] | Substance
1 | – | CAF1, full length (human) (from UniProt Q9UIV1 1-285) (enzyme)
– | 1 | CCR4a:CAF1 exonuclease heterodimer (wild type) (from UniProt Q9ULM6 1-557; Q9UIV1 1-285) (complex)
